Patent US20100196392A1 (Kyowa Kirin, published 2010)
Positions count from the first letter of the chain named. Values belong to the binder of their own block, whether it stands above or below them.

Key:
[1] = molecular target: T1, human ASCT2 (system ASC amino acid transporter 2), endogenous on human cancer cell lines KMS-11, OPM-2, WiDr … (human, UniProt Q15758 1-541); experiment: flow cytometry on KMS-11 cells
T1 construct: also called SLC1A5
T1 sequence: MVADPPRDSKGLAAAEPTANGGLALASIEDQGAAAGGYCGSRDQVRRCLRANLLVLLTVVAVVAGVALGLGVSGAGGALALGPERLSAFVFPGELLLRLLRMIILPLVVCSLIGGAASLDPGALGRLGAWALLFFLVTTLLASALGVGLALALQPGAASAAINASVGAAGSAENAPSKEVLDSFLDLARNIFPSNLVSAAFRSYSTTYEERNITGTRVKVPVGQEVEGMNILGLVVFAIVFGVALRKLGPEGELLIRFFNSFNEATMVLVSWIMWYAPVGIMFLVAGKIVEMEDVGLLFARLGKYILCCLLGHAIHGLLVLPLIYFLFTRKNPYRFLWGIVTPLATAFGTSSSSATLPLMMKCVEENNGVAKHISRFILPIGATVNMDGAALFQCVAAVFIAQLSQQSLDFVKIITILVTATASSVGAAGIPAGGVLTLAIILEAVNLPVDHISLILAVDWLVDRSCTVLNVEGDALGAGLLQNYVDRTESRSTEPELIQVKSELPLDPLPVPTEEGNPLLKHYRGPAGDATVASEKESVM
Procedure: (§1) The human ASCT2-myc/His gene-introduced CHO cell obtained in Example 2, the vector-introduced CHO cell and the multiple myeloma cell line KMS-11 (HSRRB No. JCRB1179) were respectively cultured in a 5% CO₂ incubator for 3 to 4 days at 37° C. The human ASCT2-myc/His gene-introduced CHO cells and the vector-introduced CHO cells were peeled off with a 0.02% EDTA solution (manufactured by Nacalai Tesque) and washed with a mixed solution of PBS, 0.02% EDTA and 0.05% sodium azide. Additionally, in order to avoid the non-specific adsorption of antibodies, the cells were blocked for 30 minutes at ice temperature using 1% BSA-PBS for the human ASCT2-myc/His gene-introduced CHO cells and the vector-introduced CHO cells, and using 100 μg/mL of human IgG (manufactured by Sigma) for KMS-11. The cells were seeded into a 96-well U-bottom plate so as to give a density of 1×10⁵ to 5×10⁵ cells/100 μL/well and centrifuged at 1,500 rpm for 5 minutes (05PR-22, manufactured by Hitachi Koki) and then the supernatant was removed. The test substances as the primary antibody, i.e., the purified antibodies and rat IgG2a-UNLB (negative control, manufactured by Beckman Coulter) or KM511 {negative control, anti-G-CSF derivative antibody, [Agric. Biol. Chem., 53, 1095 (1989)], mouse IgG1} were diluted to give a final concentration of 10 μg/mL in a mixed solution (hereinafter, referred to as “Dilution Solution A”) of 1% BSA-PBS, 0.02% EDTA and 0.05% sodium azide and the resulting solution was added at the volume of 100 μL/well, followed by reaction for 60 minutes at ice temperature. […] Washing with Dilution Solution A was carried out three times again, the cells were suspended in PBS and the fluorescence intensity was measured by a flow cytometer (Cytomics FC500 MPL, manufactured by Beckman Coulter).

[2] = molecular target: T2, human ASCT2-myc/His (fusion protein in which myc/His was added to the C-terminal of human ASCT2), expressed … (human, UniProt Q15758 1-541); experiment: flow cytometry on human ASCT2-myc/His CHO cells
T2 construct: Also used as cell lysate in Western blotting and immunoprecipitation; also called ASCT2/CHO; human ASCT2-myc/His gene-introduced CHO cells
T2 sequence: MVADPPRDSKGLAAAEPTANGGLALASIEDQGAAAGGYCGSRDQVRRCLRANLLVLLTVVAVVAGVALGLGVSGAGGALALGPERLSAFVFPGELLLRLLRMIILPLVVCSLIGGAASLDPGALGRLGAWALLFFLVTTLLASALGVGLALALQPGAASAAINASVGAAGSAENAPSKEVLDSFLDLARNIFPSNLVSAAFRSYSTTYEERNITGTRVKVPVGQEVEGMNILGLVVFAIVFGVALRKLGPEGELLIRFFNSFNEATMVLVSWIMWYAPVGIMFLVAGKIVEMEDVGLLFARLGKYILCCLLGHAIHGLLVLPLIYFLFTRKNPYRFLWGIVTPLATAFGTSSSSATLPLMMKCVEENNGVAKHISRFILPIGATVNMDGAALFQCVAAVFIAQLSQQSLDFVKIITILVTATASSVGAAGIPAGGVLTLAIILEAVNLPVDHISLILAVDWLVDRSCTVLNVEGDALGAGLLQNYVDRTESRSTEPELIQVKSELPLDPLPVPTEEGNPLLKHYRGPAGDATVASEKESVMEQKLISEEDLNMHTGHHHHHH
Procedure: as §1

[3] = molecular target: T1, human ASCT2 (system ASC amino acid …); experiment: flow cytometry on OPM-2 cells, 0.01 to 10 ug/mL
Procedure: (§2) Each of the human ASCT2-myc/His gene-introduced CHO cell obtained in Example 2, and the multiple myeloma cell line OPM-2 (DSMZ Accession No. ACC50) was cultured in a 5% CO₂ incubator for 3 to 4 days at 37° C. The human ASCT2-myc/His gene-introduced CHO cells were peeled off with a 0.02% EDTA solution (manufactured by Nacalai Tesque), and in order to avoid the non-specific adsorption of antibodies, the cells were blocked for 30 minutes at ice temperature using 1% BSA-PBS. The cells were seeded into a 96-well U-bottom plate so as to give a density of 1×10⁵ to 5×10⁵ cells/100 μL/well. The plates were centrifugation at 1,500 rpm for 5 minutes (05PR-22, manufactured by Hitachi Koki), and then the supernatant was removed. As the primary antibody, the purified antibody which was a test substance was diluted to give a final concentration of 0.01 μg/mL to 10 μg/mL in 1% BSA-PBS, and dispensed to the plate at 100 μL/well, followed by reaction at ice temperature for 60 minutes. After washing the cells with 1% BSA-PBS, FITC-labeled anti-human immunoglobulin G (H+L) (manufactured by Jackson Laboratories) diluted with 1% BSA-PBS was added as the secondary antibody, followed by reaction at ice temperature for 30 minutes under shading. The cells were washed with 1% BSA-PBS and then suspended in PBS. The fluorescence intensity of the cells was measured by a flow cytometer (Cytomics FC500 MPL, manufactured by Beckman Coulter).

[4] = molecular target: T2, human ASCT2-myc/His (fusion protein in …); experiment: flow cytometry on human ASCT2-myc/His CHO cells, 0.01 to 10 ug/mL
Procedure: as §2

[5] = molecular target: T3, mouse ASCT2-myc/His, expressed on CHO cells (mouse, UniProt P51912 1-553); experiment: flow cytometry on mouse ASCT2/CHO cells
T3 construct: also called mouse ASCT2/CHO
T3 sequence: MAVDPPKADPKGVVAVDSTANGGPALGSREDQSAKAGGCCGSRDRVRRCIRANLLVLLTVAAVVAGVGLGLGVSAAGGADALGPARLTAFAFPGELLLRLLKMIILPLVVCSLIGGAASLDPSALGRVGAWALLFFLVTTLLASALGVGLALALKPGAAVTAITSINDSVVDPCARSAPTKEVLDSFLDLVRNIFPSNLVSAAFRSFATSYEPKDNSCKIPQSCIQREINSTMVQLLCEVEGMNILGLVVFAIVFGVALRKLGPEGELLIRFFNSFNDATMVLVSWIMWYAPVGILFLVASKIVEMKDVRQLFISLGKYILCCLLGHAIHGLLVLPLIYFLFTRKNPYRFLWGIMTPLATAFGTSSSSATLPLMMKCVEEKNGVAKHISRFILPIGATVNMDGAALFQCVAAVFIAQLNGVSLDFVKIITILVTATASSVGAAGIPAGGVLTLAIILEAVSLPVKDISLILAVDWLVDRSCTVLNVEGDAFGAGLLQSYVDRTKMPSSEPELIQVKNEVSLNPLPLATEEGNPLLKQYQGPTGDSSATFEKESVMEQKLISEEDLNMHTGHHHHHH

- binding result [1]: binds
- binding result [2]: binds
B1: anti-ASCT2 monoclonal antibody KM4008 (hybridoma KM4008, FERM BP-10962) (antibody, V domains shown)
VH: QIQLVQSGPELKKPGETVKISCKASGYTFTTFGMSWVKQVPGKGLKWMGWIHTYAGVPIYGDDFKGRFAFSLETSASTAYLQINNVKNEDTATYFCARRSDNYRYFFDYWGQGTTLTVSS
VL: DIQMTQTTSSLSASLGDRVTISCRASQDIRNYLNWYQRKPHGTVKLLIYYTSRLHSGVPSRFSGSGSGTDYSLTISNLEQEDIATYFCQQGHTLPPTFGGGTKLEIKR
notes: Mouse monoclonal antibody

- binding result [3]: binds
- binding result [4]: binds
B2: anti-ASCT2 human chimeric antibody cKM4008 (antibody, V domains shown)
VH: B1 VH
VL: B1 VL
notes: VH and VL of KM4008 were inserted into vector pKANTEX93, which carries human CH and CL; The SDS-PAGE pattern was consistent with the IgG class

- binding result [1]: binds
- binding result [2]: binds
B3: anti-ASCT2 monoclonal antibody KM4012 (hybridoma KM4012, FERM BP-10963) (antibody, V domains shown)
VH: B1 VH with F32Y, V40T, A55S, F64S, A76G, T78I, N102G
VL: B1 VL with T7I, R38Q, H41D, H92N
notes: Hybridoma antibody

- binding result [3]: binds
- binding result [4]: binds
B4: anti-ASCT2 human chimeric antibody cKM4012 (antibody, V domains shown)
VH: B1 VH with F32Y, V40T, A55S, F64S, A76G, T78I, N102G
VL: B1 VL with T7I, R38Q, H41D, H92N
notes: VH and VL of KM4012 were inserted into vector pKANTEX93, which carries human CH and CL; The SDS-PAGE pattern was consistent with the IgG class

- binding result [1]: binds
- binding result [2]: binds
- binding result [5]: no binding
B5: anti-ASCT2 monoclonal antibody KM4018 (antibody, V domains shown)
VH: EVQLVESGGGLVQSGRSIRLSCAASGFSFSNYYMAWVRQAPSKGLEWVASITKGGGNTYYRDSVKGRFTFSRDNAKSTLYLQMDSLRSEDTATYYCARQVTIAAVSTSYFDSWGQGVMVTVSS
VL: DIVLTQSPALAVSLGQRATISCKTNQKVDYYGNSYVYWYQQKPGQQPKLLIYLASNLASGIPARFSGRGSGTDFTLTIDPVEADDTATYYCQQSRNLPYTFGAGTKLELKR
notes: Hybridoma antibody

- binding result [3]: binds
- binding result [4]: binds
B6: anti-ASCT2 human chimeric antibody cKM4018 (antibody, V domains shown)
VH: B5 VH
VL: B5 VL
notes: VH and VL of KM4018 were inserted into vector pKANTEX93, which carries human CH and CL; The SDS-PAGE pattern was consistent with the IgG class
